Biological target: T1, GST-galectin-3 (human, UniProt P08515 1-218 = GST)
T1 construct: Full-length galectin-3 in pGEX4T1; also called GST-galectin-3 fusion protein; GST fusion with full-length galectin-3
Assay: GST-galectin-3 pull-down from BT549 lysates, anti-MUC1-C immunoblot
Method: Immunoblotting and precipitates. Lysates were prepared from subconfluent cells as described (Li et al., 2001).

T1 sequence (P08515 1-218, tags or fused parts left off): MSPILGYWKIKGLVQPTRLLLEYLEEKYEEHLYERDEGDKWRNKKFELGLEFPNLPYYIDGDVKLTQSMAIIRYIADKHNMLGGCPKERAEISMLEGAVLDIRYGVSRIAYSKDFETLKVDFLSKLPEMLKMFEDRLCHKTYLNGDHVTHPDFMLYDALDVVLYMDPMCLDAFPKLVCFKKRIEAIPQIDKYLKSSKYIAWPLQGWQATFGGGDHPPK

B1: MUC1-C(N36A) (receptor)
chain: SVVVQLTLAFREGTINVHDVETQFNQYKTEAASRYALTISDVSVSDVPFPFSAQSGAGVPGWGIALLVLVCVLVALAIVYLIALAVCQCRRKNYGQLDIFPARDTYHPMSEYPTYHTHGRYVPPSSTDRSPYEKVSAGNGGSSLSYTNPAVAATSANL
notes: Stably expressed in BT549 cells and tested in lysates; lacks the glycosylated 25-20 kDa species; also called MUC1-C with a N36A mutation
binding result: no binding

— patent US20100098683A1 (Dana-Farber, published 2010)
